Where “and” joins values, the source holds several entries; their conditions need not be identical. Identical values can stand only once.
Tests used:
LAG3/MHC-II interaction = molecular target: T1, LAG3/MHC-II interaction (Homo sapiens, UniProt P18627); test: HTRF LAG3/MHC-II binding assay (Cisbio)
T1 construct: purchased Cisbio US Inc
T1 sequence (P18627 23-450 limits assumed): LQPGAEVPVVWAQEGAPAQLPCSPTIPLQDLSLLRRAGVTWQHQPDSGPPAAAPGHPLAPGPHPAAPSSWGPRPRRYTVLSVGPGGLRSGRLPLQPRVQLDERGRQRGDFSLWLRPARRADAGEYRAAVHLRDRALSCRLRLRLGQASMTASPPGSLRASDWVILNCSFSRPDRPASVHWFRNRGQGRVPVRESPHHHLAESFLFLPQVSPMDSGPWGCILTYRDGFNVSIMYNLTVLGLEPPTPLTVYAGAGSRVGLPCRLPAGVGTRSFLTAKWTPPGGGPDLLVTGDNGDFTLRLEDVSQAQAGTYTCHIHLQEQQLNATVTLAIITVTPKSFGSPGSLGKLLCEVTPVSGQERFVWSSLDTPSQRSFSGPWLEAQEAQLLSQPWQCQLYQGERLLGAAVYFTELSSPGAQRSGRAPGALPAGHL
Description: FIG. 2 is a graph showing the results of a homogeneous time-resolved fluorescence (HTRF) assay for peptide LAG3-11. Reference Ab-LAG3 is an anti-LAG3 antibody. OVA, the ovalbumin (OVA) peptide (ISQAVHAAHAEINEAGR, SEQ ID NO:8). “HTRF ratio” is the emission at 665 nm (acceptor)/emission at 620 nm (donor) multiplied by a factor or 10^4.
A homogeneous time-resolved fluorescence (HTRF) LAG3/MHC-II binding assay (Cisbio US Inc.) was used to measure the interaction between MHC-II and LAG3 in the presence of peptides. In this assay, the interaction between Tag1-LAG3 and Tag2-MHC-II is detected by using anti-Tag1-Terbium (HTRF donor) and anti-Tag2-XL665 (HTRF acceptor). When the donor and acceptor antibodies are brought into close proximity due to LAG3 and MHC-II binding, excitation of the donor antibody triggers fluorescent resonance energy transfer (FRET) towards the acceptor antibody, which in turn emits specifically at 665 nm. This specific signal is directly proportional to the extent of LAG3/MHC-II interaction. Thus, an agent that blocks the interaction between LAG3 and MHC-II will cause a reduction in HTRF ratio.
An anti-human LAG3 antibody (Novoprotein #GMP-A092, Lot 0331158, 500 nM) was tested in the assay at an eleven-point, serially diluted semi-log dose response curve starting at 100 nM and served as a positive control. The ovalbumin peptide was used as a negative control. Peptides were reconstituted at a concentration of 20 mM in […] and tested at an eleven-point dose response curve starting at 100 µM followed by 4-fold dilutions. […]

[1] = molecular target: T2, soluble recombinant human LAG3 (Homo sapiens, UniProt P18627); test: Clonal phage ELISA after phage display bio-panning; assay type: binding; details: for Clonal Phase ELISA uncoated signal: uncoated (background)
T2 construct: soluble recombinant human LAG3
T2 sequence (P18627 23-450 limits assumed): T1 sequence (P18627 23-450 limits assumed)
Description: The TriCo-20™, TriCo-16™, Ph.D.-12™, and Ph.D. C7™ Phage Display Peptide Libraries (Creative Biolabs, 45-1 Ramsey Road, Shirley, NY 11967) were screened by performing several rounds of bio-panning to identify binders of soluble recombinant human LAG3.

human LAG3/FGL1 = molecular target: T3, human LAG3/FGL1 (Homo sapiens, UniProt P18627); test: Human LAG3/FGL1 TR-FRET binding assay (BPS Bioscience)
T3 construct: purchased BPS Bioscience
T3 sequence (P18627 23-450 limits assumed): T1 sequence (P18627 23-450 limits assumed)
Protocol: The peptides were tested using a human LAG3/FGL1 TR-FRET binding assay (BPS Bioscience) carried out according to the manufacturer's instructions.
Peptide stocks of LAG3-11, LAG3-42, LAG3-48, LAG3-51, LAG3-54, LAG3-56, LAG3-60 and OVA were prepared at 1 mM followed by a 1:5 dilution in plate reactions. LAG3-11 and OVA were tested at 200, 50, 13, 3, 0.8, 0.2, 0.05, and 0.01 μM. The other peptides were tested at 200, 50, 13, and 3 μM. A neutralizing anti-human LAG3 antibody (BPS Bioscience Cat. #71219) was used as a positive control.
Reaction mixes were incubated 1 hr at RT before development. After development, plate was read in a Tecan M1000 TR-FRET instrument. Percent activity was calculated as follows: % Activity=100×[(sample−minimum)/(maximum−minimum)]

[2] = LOG [Compound] M tested for peptide −4, single replicates
[3] = LOG [Compound] M tested for peptide −4.60206, single replicates
[4] = LOG [Compound] M tested for peptide −5.20412, single replicates
[5] = LOG [Compound] M tested for peptide −5.80618, single replicates
[6] = LOG [Compound] M tested for peptide −6.40824
[7] = LOG [Compound] M tested for peptide −7.0103, single replicates
[8] = LOG [Compound] M tested for peptide −7.61236, single replicates
[9] = LOG [Compound] M tested for peptide −8.21442, single replicates
[10] = LOG [Compound] M tested for peptide −8.81648, single replicates
[11] = LOG [Compound] M tested for peptide −9.41854, single replicates
[12] = LOG [Compound] M tested for peptide −10.0206
[13] = LOG [Compound] M tested for peptide −10.6227

| Sequence | HTRF ratio (LAG3/MHC-II interaction; [2]) | HTRF ratio (LAG3/MHC-II interaction; [3]) | HTRF ratio (LAG3/MHC-II interaction; [4]) | HTRF ratio (LAG3/MHC-II interaction; [5]) | HTRF ratio (LAG3/MHC-II interaction; [6]) | HTRF ratio (LAG3/MHC-II interaction; [7]) | HTRF ratio (LAG3/MHC-II interaction; [8]) | HTRF ratio (LAG3/MHC-II interaction; [9]) | HTRF ratio (LAG3/MHC-II interaction; [10]) | HTRF ratio (LAG3/MHC-II interaction; [11]) | HTRF ratio (LAG3/MHC-II interaction; [12]) | HTRF ratio (LAG3/MHC-II interaction; [13]) | Clonal Phase ELISA coated signal [1] | Clonal Phase ELISA uncoated signal [1] | inhibition of the interaction between human LAG3 and FGL1 (human LAG3/FGL1) |
| --- | --- | --- | --- | --- | --- | --- | --- | --- | --- | --- | --- | --- | --- | --- | --- |
| ACGPGSFGDCGGG (LAG3-54 peptide) | 2283 and 4122 and 3912 | 7055 and 6709 and 6833 | 8691 and 8561 and 8512 | 9156 and 9205 and 9142 | 9161 and 9048 and 8773 | 9105 and 9141 and 9004 | 8674 and 9031 and 9075 | 8996 and 8645 and 8867 | 8130 and 8918 and 8630 | 8942 and 8930 and 8755 | 8344 and 9203 and 8748 | 9100 and 9262 and 8921 | 0.417 | 0.103 |  |
| DWNFQQWDWKKHNHLDSHVV (LAG3-42 peptide) | 7234 and 7037 and 7142 | 8389 and 8097 and 8045 | 8629 and 8765 and 8733 | 9281 and 8905 and 8572 | 9189 and 8945 and 8784 | 9432 and 8649 and 9072 | 9209 and 8787 and 9109 | 9407 and 8205 and 9247 | 9579 and 9134 and 8703 | 9137 and 8550 and 8958 | 8860 and 8937 and 8907 | 9016 and 8914 and 9210 | 0.378 | 0.084 |  |
| FYSPNHEEYHDWNVDSSVNE (LAG3-48 peptide) | 3507 and 2809 and 3028 | 5662 and 5088 and 5724 | 8301 and 8213 and 8200 | 8663 and 9082 and 9045 | 9264 and 9194 and 9135 | 8727 and 9103 and 9142 | 8936 and 9357 and 9297 | 9082 and 9139 and 9095 | 8708 and 9153 and 8757 | 8564 and 8922 and 8442 | 8765 and 9097 and 8602 | 8663 and 8904 and 9303 | 0.227 | 0.094 |  |
| HESGSVPHPWQFFTHYVS (LAG3-60 peptide) | 2986 and 3079 | 5934 and 5959 and 5991 | 8233 and 7988 and 7918 | 8525 and 8398 and 8342 | 8614 and 8929 and 9290 | 9142 and 8745 and 8892 | 8987 and 8983 and 9320 | 9275 and 8931 and 9366 | 9059 and 9248 and 8887 | 8772 and 8594 and 9169 | 8924 and 8349 and 8904 | 8795 and 9240 and 9350 | 0.330 | 0.091 |  |
| HIQNWSYWLNQDMMNQQVWKS (LAG3-56 peptide) | 4194 and 4083 and 4373 | 6880 and 7058 and 7142 | 8218 and 8349 and 8414 | 8791 and 8658 and 8464 | 9040 and 9185 and 9082 | 8147 and 9275 and 9111 | 8935 and 9303 and 9093 | 8765 and 9591 and 9178 | 8856 (2×) and 8869 | 9050 and 9029 and 9176 | 9022 and 8887 and 8540 | 8885 and 9204 and 8617 | 0.529 | 0.101 | inhibit the interaction between human LAG3 and FGL1 |
| ISQAVHAAHAEINEAGR (listed as Gallus gallus) [OVA peptide, reference compound] | 7154 and 8492 and 8909 | 8449 and 8472 and 8683 | 9015 and 8616 and 8579 | 9180 and 8833 and 9374 | 9189 and 8634 and 9280 | 8380 and 8654 and 8970 | 9015 and 8776 and 8568 | 9219 and 8624 and 8987 | 8684 and 8724 and 8639 | 8625 and 8396 and 8788 | 8356 and 8986 and 8457 | 8633 and 9086 and 8892 |  |  |  |
| KVWQVPQDTQHWLSPNFYSV (LAG3-51 peptide) | 3058 and 2773 and 2875 | 6649 and 6521 and 6468 | 7908 and 8071 and 8322 | 8723 and 8946 and 8748 | 9265 and 8583 and 8662 | 8098 and 9193 and 9017 | 8762 and 9360 and 9173 | 8950 and 8608 and 8357 | 8834 and 8187 and 8957 | 8867 and 8809 and 8630 | 8784 and 8779 and 8696 | 9082 and 9104 and 9298 | 0.234 | 0.076 |  |

Reference: patent publication US12269880B2, “LAG3 binding peptides” (Leidos, Inc., priority 2019, dated 2025)
